The values that follow come from patent US20230272011A1 (AVACTA LIFE SCIENCES, published 2023).

Assay [1] addresses T1, human serum albumin (human, UniProt P02768 25-609).
T1 construct: mature; Bought protein; biotinylated in the Octet and HTRF assays; also called HSA; HuSA
As to the kind of experiment: binding ELISA on coated HSA, pH 7.4. How it is done: After saturation with 5% PBS Casein pH 7.5, plates were washed and a dilution of AFFIMER® polypeptides or controls were incubated for 90 minutes. Plates were then washed, and a biotinylated polyclonal antibody anti-cystatin A (R&D Systems) was added for 1 hour. Plates were washed and AFFIMER® polypeptides were detected using streptavidin-HRP. After a last washing step, TMB was added for the development of the experiment and the plates were read at 450 nm.

In assay [2] the target is T2, human PD-L1-Fc (R&D Systems) chimeric protein (human, UniProt Q9NZQ7 19-239).
T2 construct: Bought reagent; also called rhPD-L1-Fc; huPD-L1; Fc part of the bought chimera not given, not described
T2 sequence (Q9NZQ7 19-239, change not shown): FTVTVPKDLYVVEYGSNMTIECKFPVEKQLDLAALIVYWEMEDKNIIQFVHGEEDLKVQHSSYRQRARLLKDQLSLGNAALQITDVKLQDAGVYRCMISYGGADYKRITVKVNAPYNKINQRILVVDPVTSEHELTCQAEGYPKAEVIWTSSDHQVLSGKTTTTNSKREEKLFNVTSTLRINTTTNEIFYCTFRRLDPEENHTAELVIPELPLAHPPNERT
As to the kind of experiment: SPR (Biacore), immobilised rhPD-L1-Fc, Affimer analyte. How it is done: ILF dimer production from E. coli was performed as described in Example 3. Briefly, protein was purified using three stages: affinity capture, IEX, and preparative SEC. […] To analyze PD-L1-Fc binding kinetics, a Biacore T200 kinetic analysis was performed using running buffer HBS-EP+ and series S sensor CM5 (GE Healthcare) chip Fc2 immobilized with PD-L1-Fc (R&D Systems) in 10 mM sodium acetate pH 4.0 using amine coupling reagents (GE Healthcare). The concentration titration of ILF AFFIMER® polypeptides was run as analyte at a flow rate of 30 μl/min. […] with 3 mM NaOH (GE healthcare) for 20 seconds at 20 μl/min flow rate. The Fc2-1 data blank was subtracted and fit to a 1:1 Langmuir binding model (Biacore evaluation software; GE) to calculate an apparent KD value.
ILF production in E. coli was performed as described in Example 3 using protein purified using affinity capture, IEX, and preparative SEC. Protein purity was assessed using SDS-PAGE and SEC-HPLC.
(In SPR one partner is held on a chip, and binding of the other changes the refractive index at the surface.)

Assay [3] has as its target T1, human serum albumin. As to the kind of experiment: SPR (Biacore), immobilised HSA, Affimer analyte. As for the experimental part:
Affinities for mouse, human, and cynomolgus serum were also measured at pH 7.4 for four (4) AFFIMER® binders using surface plasmon resonance (SPR) (FIG. 5, Table 5). […] A concentration titration of AFFIMER® monomers was run as analyte at a flow rate of 30 μl/min or 60 μl/min. Fc2-1, Fc3-1 and Fc4-1 kinetic data was blank subtracted and fit to a 1:1 Langmuir binding model (BIAcore Evalution software; GE) to calculate KD values. […]

The target of assay [4] is T2, human PD-L1-Fc (R&D Systems) chimeric …. As to the kind of experiment: binding ELISA on coated human PD-L1-Fc (table on the sheet is headed 'IC50 (nM)'; the text calls these values EC50). As for the experimental part:
Briefly, human PD-L1-Fc (R&D Systems) chimeric protein was coated on 96 well plates at […] in carbonate buffer. After saturation with 5% casein/PBS buffer, the plates were washed and a dilution of AFFIMER® polypeptides or controls were incubated for 90 minutes. Plates were then washed and a biotinylated polyclonal antibody anti-cystatin A (R&D Systems) was added for 1 hour. Plates were washed and AFFIMER® polypeptides were detected using streptavidin-HRP. After a last washing step, TMB was added for the development of the experiment and plates were read at 450 nm.
A general note: ELISA stands for enzyme-linked immunosorbent assay.

Assay [5] concerns the target human PD-L1 (PD-1/PD-L1 blockade Bioassay, Promega) (human, UniProt Q9NZQ7 19-290, limits assumed). The assay is described as follows: cell-based or functional assay.
In assay [6] the target is T2, human PD-L1-Fc (R&D Systems) chimeric …. As to the kind of experiment: Biacore single cycle kinetics on human PD-L1 Fc.

Chain of human PD-L1 (PD-1/PD-L1 blockade Bioassay, Promega) (Q9NZQ7 19-290 limits assumed): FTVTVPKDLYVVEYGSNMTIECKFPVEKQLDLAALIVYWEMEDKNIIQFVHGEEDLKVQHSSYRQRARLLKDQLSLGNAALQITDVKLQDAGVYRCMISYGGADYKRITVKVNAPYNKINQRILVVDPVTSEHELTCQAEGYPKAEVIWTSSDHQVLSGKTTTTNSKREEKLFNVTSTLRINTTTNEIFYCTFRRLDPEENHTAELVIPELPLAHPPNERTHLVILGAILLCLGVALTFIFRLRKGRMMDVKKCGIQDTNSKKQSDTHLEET

B1: AVA04-251 XT15 (designed binder)
chain: MIPRGLSEAKPATPEIQEIVDKVKPQLEEKTNETYGKLEAVQYKTQVLAREGRQDWVLSTNYYIKVRAGDNKYMHLKVFNGPWVPFPHQQLADRVLTGYQVDKNKDDELTGFAEAAAKEAAAKEAAAKEAAAKEAAAKEAAAKMIPRGLSEAKPATPEIQEIVDKVKPQLEEKTNETYGKLEAVQYKTQVLANFFQRRWPGSTNYYIKVRAGDNKYMHLKVFNGPWKFRNTDRGADRVLTGYQVDKNKDDELTGFAEAAAKEAAAKEAAAKEAAAKEAAAKEAAAKMIPRGLSEAKPATPEIQEIVDKVKPQLEEKTNETYGKLEAVQYKTQVLAREGRQDWVLSTNYYIKVRAGDNKYMHLKVFNGPWVPFPHQQLADRVLTGYQVDKNKDDELTGFHHHHHH
On to B1, for which a half-maximal effect in the assay with human serum albumin [1] (EC50) was put at 0.039 nM. Besides, in assay [2], binding was characterised by a dissociation constant (Kd) of 0.704 nM; the koff (as a rule, a measure of how fast the partners let go of each other) turned out to be 0.000607 s⁻¹; the kon (usually a measure of how fast the partners come together) amounted to 863000 M⁻¹ s⁻¹. Also, in the assay with human serum albumin [3], the Kd (in general, the equilibrium constant for the complex coming apart) is 5.2 nM; the koff came to 0.0029 s⁻¹; the kon amounted to 557000 M⁻¹ s⁻¹. The EC50 (in general, the concentration needed to bring the measured effect to its halfway point) in assay [4] was found to be 0.064 nM. The “IC50 as headed on the sheet (EC50); PD-1/PD-L1 blockade Bioassay (Promega), fold change relative to assay buffer” value (shortened to “IC50 … fold change relative to assay buffer”) in assay [5] turned out to be 434 nM.

B2: AVA04-251 XT14 (designed binder)
chain: MIPRGLSEAKPATPEIQEIVDKVKPQLEEKTNETYGKLEAVQYKTQVLAREGRQDWVLSTNYYIKVRAGDNKYMHLKVFNGPWVPFPHQQLADRVLTGYQVDKNKDDELTGFAEAAAKEAAAKEAAAKEAAAKEAAAKEAAAKMIPRGLSEAKPATPEIQEIVDKVKPQLEEKTNETYGKLEAVQYKTQVLAREGRQDWVLSTNYYIKVRAGDNKYMHLKVFNGPWVPFPHQQLADRVLTGYQVDKNKDDELTGFAEAAAKEAAAKEAAAKEAAAKEAAAKEAAAKMIPRGLSEAKPATPEIQEIVDKVKPQLEEKTNETYGKLEAVQYKTQVLANFFQRRWPGSTNYYIKVRAGDNKYMHLKVFNGPWKFRNTDRGADRVLTGYQVDKNKDDELTGFHHHHHH
With B2, the EC50 with human serum albumin [1] was 0.062 nM; in assay [4] it was 0.033 nM. The figures for the Kd (in assay [2]; with human serum albumin [3]; in assay [6]) were 0.504 nM, 8.75 nM and 0.307 nM, respectively. For the same molecule, the off-rate (koff) in assay [2] is 0.00042 s⁻¹; in the assay with human serum albumin [3], 0.00282 s⁻¹; in assay [6] it was 0.000277 s⁻¹. The kon in assay [2] was found to be 834000 M⁻¹ s⁻¹; with human serum albumin [3], 322000 M⁻¹ s⁻¹; in assay [6], 903000 M⁻¹ s⁻¹. For the same molecule, the “IC50 … fold change relative to assay buffer” value in assay [5] stood at 176 nM.

B3: AVA04-251 BH (designed binder)
chain: MIPRGLSEAKPATPEIQEIVDKVKPQLEEKTNETYGKLEAVQYKTQVLAREGRQDWVLSTNYYIKVRAGDNKYMHLKVFNGPWVPFPHQQLADRVLTGYQVDKNKDDELTGFAEAAAKEAAAKEAAAKEAAAKEAAAKEAAAKMIPRGLSEAKPATPEIQEIVDKVKPQLEEKTNETYGKLEAVQYKTQVLAREGRQDWVLSTNYYIKVRAGDNKYMHLKVFNGPWVPFPHQQLADRVLTGYQVDKNKDDELTGFHHHHHH
notes: also called anti-PD-L1 parental ILF dimer molecule
As to B3, in assay [2], binding was characterised by a dissociation constant (Kd) of 1.71 nM, the off-rate constant (koff) was determined as 0.00129 s⁻¹ and the kon came to 752000 M⁻¹ s⁻¹. In assay [4], this molecule gave an EC50 of 0.03 nM. Moreover, the “IC50 … fold change relative to assay buffer” value in assay [5] was determined as 893 nM.
